Reference: US10512669
Where “and” joins values, the source holds several entries; their conditions need not be identical. Identical values can stand only once.

Target: TACE expressed on resting and LPS-stimulated THP-1 cells, P78536
Assay: cell-based or functional assay

Sequence of TACE expressed on resting and LPS-stimulated THP-1 cells, P78536 (P78536 215-824 limits assumed): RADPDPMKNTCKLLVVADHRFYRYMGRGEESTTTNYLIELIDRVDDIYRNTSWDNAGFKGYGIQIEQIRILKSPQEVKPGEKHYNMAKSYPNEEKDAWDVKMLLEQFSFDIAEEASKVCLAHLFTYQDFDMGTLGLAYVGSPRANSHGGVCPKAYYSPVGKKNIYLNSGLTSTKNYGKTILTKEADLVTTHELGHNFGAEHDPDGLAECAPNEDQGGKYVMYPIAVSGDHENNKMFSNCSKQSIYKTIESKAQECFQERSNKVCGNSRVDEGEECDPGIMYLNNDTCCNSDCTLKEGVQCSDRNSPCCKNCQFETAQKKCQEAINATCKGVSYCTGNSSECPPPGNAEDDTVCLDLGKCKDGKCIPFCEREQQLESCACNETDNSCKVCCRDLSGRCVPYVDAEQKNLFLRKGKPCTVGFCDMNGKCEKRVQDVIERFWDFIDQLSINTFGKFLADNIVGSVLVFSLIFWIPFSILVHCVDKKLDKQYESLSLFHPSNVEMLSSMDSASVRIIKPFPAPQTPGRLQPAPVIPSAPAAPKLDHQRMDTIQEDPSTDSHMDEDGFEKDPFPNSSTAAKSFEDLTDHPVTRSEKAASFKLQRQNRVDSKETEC

IC50, inhibition of TACE in cell-based assay on THP-1 cells: 15 µg/ml and 7.4 µM
B1: Rhesus θ-defensin-1 (RTD-1) (peptide)
peptide: GFCRCLCRRGVCRCICTR
modifications: not checked
